# Measurements as given in PMC10681709, “Molecular insight into the specific enzymatic properties of TREX1 revealing the diverse functions in processing RNA and DNA/RNA hybrids”.
# T1: mTREX1 truncated (nuclease domain) (Mus musculus, UniProt Q91XB0 1-242)
# T1 sequence: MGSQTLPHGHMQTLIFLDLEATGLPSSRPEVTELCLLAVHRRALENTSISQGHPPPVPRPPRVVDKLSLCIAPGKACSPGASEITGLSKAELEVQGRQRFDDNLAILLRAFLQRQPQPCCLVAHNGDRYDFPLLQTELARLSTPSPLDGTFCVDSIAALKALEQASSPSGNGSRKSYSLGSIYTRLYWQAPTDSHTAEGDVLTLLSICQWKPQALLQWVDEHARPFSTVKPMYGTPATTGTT
# B1: DNA/RNA hybrid 20 bp (DNA:RNA)
# DNA: ACTGGACAAATACTCCGAGG
# RNA: CCUCGGAGUAUUUGUCCAGU
# B2: dsDNA20 (dsDNA)
# DNA 1: ACTGGACAAATACTCCGAGG
# DNA 2: CCTCGGAGTATTTGTCCAGT
# B3: dsDNA19+RNA1 (ss19D1R/ssDNA20) (mixed)
# DNA 1: ACTGGACAAATACTCCGAGG
# DNA 2: CCTCGGAGTATTTGTCCAGT
# modifications: strand 1 3'-terminal G20 is a ribonucleotide; rest DNA
# Columns and labels:
# [1] = target: T1, mTREX1 truncated (nuclease domain); assay: fluorescence anisotropy; 20 mM EDTA, no Mg2+; FA: 5 nM FAM nucleic acid, 120 mM NaCl, 20 mM Tris pH 7.0, 20 mM EDTA, room temperature, 30 min; RNase T EMSA: 120 mM NaCl, 50 mM EDTA, 20 mM buffer (truncated); conditions: protein: recombinant, tags: His-tag, chain copies: 2
# [2] = target: T1, mTREX1 truncated (nuclease domain); assay: fluorescence anisotropy; 20 mM EDTA; not saturated, extrapolated (legend prints uM, text nM); FA: 5 nM FAM nucleic acid, 120 mM NaCl, 20 mM Tris pH 7.0, 20 mM EDTA, room temperature, 30 min; RNase T EMSA: 120 mM NaCl, 50 mM EDTA, 20 mM buffer (truncated); conditions: protein: recombinant; tags: His-tag; chain copies: 2; label: 5'-FAM; single strand
# [3] = target: T1, mTREX1 truncated (nuclease domain); assay: fluorescence anisotropy; 20 mM EDTA; extrapolated; legend prints uM, but nM fits the stated ~500-fold drop vs ssDNA20; FA: 5 nM FAM nucleic acid, 120 mM NaCl, 20 mM Tris pH 7.0, 20 mM EDTA, room temperature, 30 min; RNase T EMSA: 120 mM NaCl, 50 mM EDTA, 20 mM buffer (truncated); conditions: protein: recombinant; tags: His-tag; chain copies: 2; label: 5'-FAM; single strand
# [4] = target: T1, mTREX1 truncated (nuclease domain); assay: fluorescence anisotropy; 20 mM EDTA; Kd stated between those of dsDNA (139.4 nM) and DNA/RNA hybrid (102.0 nM); FA: 5 nM FAM nucleic acid, 120 mM NaCl, 20 mM Tris pH 7.0, 20 mM EDTA, room temperature, 30 min; RNase T EMSA: 120 mM NaCl, 50 mM EDTA, 20 mM buffer (truncated); conditions: protein: recombinant; tags: His-tag; chain copies: 2; label: 5'-FAM on strand 1; blunt
binder,measurement,setting,value
ACTGGACAAATACTCCGAGG (ssDNA) [ssDNA20],Kd,"[1]; label: 5'-FAM, single strand",77.7 ± 6 nM
ACUGGACAAAUACUCCGAGG (ssRNA) [ssRNA20],Kd,[2],~59 µM
"ACTGGACAAATACTCCGAGG (mixed, 3'-terminal A18 G19 G20 are ribonucleotides; positions 1-17 DNA) [ssDNA17+RNA3 (ss17D3R)]",Kd,[3],~39.6 µM
B1,Kd,[1]; blunt,102 ± 8 nM
B2,Kd,"[1]; label: 5'-FAM on strand 1, blunt",139 ± 17.2 nM
B3,binding result,[4],binds
